Measured values from patent US20220363770A1 (Amgen, published 2022).
Changes are numbered by the printed parent chain.

T1: human PAC1 receptor (human, UniProt P41586 24-468)
T1 sequence: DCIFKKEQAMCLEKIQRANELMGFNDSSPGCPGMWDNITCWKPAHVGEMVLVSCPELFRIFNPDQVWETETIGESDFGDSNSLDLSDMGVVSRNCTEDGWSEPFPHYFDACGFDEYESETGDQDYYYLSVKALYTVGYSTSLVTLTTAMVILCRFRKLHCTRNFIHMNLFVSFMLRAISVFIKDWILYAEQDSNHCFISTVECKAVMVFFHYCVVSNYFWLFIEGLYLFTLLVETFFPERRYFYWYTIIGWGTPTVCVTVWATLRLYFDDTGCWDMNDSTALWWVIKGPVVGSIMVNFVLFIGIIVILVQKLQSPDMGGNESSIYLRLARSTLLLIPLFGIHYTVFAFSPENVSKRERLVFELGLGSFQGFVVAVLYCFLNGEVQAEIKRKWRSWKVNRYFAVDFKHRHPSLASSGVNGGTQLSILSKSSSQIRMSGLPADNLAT

B1: anti-CGRP receptor variant antibody 10, bivalent monoclonal antibody (antibody, human IgG1, lambda, N297G, V domains shown)
VH: QVQLVESGGGVVQPGRSLRLSCAASGFFFGSYGMHWVRQAPGKGLEWVAVISFAGEIEHYVDSVKGRFTISRDNSKNTLFLQMNSLRAEDTAVYYCARDRLNYYESSGYYHYKYYGMAVWGQGTTVTVSS
VL: QSVLTQPPSVSAAPGQKVTISCSGSSSNIGNNYVSWYQQLPGTAPKLLIYDNNKRPSGIPDRFSGSKSGTSATLGITGLQTGDEADYYCGTWDSRLSAVVFGGGTKLTVLG
B2: anti-CGRP receptor variant antibody 06, bivalent monoclonal antibody (antibody, human IgG1, lambda, N297G, V domains shown)
VH: B1 VH with F28T, G30S, Y32F, A54D, E56S, E58K, H59Y, Y60S
VL: B1 VL with S26Y, N31R, N32K, Y33S
B3: iPS:454731 (bispecific antibody, human IgG1, kappa, lambda, N297G)
light 1: QSVLTQPPSVSAAPGQKVTISCSGSYSNIGRYSVSWYQQLPGTAPKLLIYDNNKRPSGIPDRFSGSKSGTSATLGITGLQTGDEADYYCGTWDSRLSAVVFGGGTKLTVLGQPKAAPSVTLFPPSSEELQANKATLVCLISDFYPGAVTVAWKADSSPVKAGVETTTPSKQSNNKYAAKSYLSLTPEQWKSHRSYSCQVTHEGSTVEKTVAPTECS
heavy 1: QVQLVESGGGVVQPGRSLRLSCAASGFTFSSFGMHWVRQAPGKGLEWVAVISFDGSIKYSVDSVKGRFTISRDNSKNTLFLQMNSLRAEDTAVYYCARDRLNYYESSGYYHYKYYGMAVWGQGTTVTVSSASTKGPSVFPLAPSSKSTSGGTAALGCLVKDYFPEPVTVSWNSGALTSGVHTFPAVLQSSGLYSLESVVTVPSSSLGTQTYICNVNHKPSNTKVDKKVEPKSCDKTHTCPPCPAPELLGGPSVFLFPPKPKDTLMISRTPEVTCVVVDVSHEDPEVKFNWYVDGVEVHNAKTKPCEEQYGSTYRCVSVLTVLHQDWLNGKEYKCKVSNKALPAPIEKTISKAKGQPREPQVYTLPPSRKKMTKNQVSLTCLVKGFYPSDIAVEWESNGQPENNYKTTPPVLKSDGSFFLYSKLTVDKSRWQQGNVFSCSVMHEALHNHYTQKSLSLSPGK
light 2: EIVLTQSPATLSLSPGERATLSCRASKAVWHNLHWYQQKPGQAPRLLIKYASQSLSGIPARFSGSGSGTDFTLTISSLEPEDFAVYYCHQSSMLPFTFGPGTKVDIKRTVAAPSVFIFPPSDEQLKSGTASVVCLLNNFYPREAKVQWKVDNALQSGNSQESVTEQDSKDSTYSLESTLTLSKADYEKHKVYACEVTHQGLSSPVTKSFNRGEC
heavy 2: not shown
B4: iPS:454737 (bispecific antibody, human IgG1, kappa, lambda, N297G)
light 1: B3 light 1
heavy 1: B3 heavy 1
light 2: B3 light 2 with A28S, W30G, H31Q, N32S, M93R
heavy 2: not shown
B5: iPS:454735 (bispecific antibody, human IgG1, kappa, lambda, N297G)
light 1: B3 light 1
heavy 1: B3 heavy 1
light 2: B3 light 2 with A28S, W30G, H31Q, N32S, M93R
heavy 2: not shown
B6: iPS:454739 (bispecific antibody, human IgG1, kappa, lambda, N297G)
light 1: B3 light 1
heavy 1: B3 heavy 1
light 2: B3 light 2 with A28S, W30G, H31W, N32S, M93R
heavy 2: not shown
B7: iPS:454733 (bispecific antibody, human IgG1, kappa, lambda, N297G)
light 1: B3 light 1
heavy 1: B3 heavy 1
light 2: B3 light 2 with K27R, A28S, W30G, H31L, N32A, M93F
heavy 2: not shown

target: human CGRP receptor (human CRLR / human RAMP1 heterodimer) (human, UniProt Q16602 23-461; O60894 27-148); experiment: cell-based or functional assay
Sequence (Q16602 23-461 limits assumed, chain 1 of 2): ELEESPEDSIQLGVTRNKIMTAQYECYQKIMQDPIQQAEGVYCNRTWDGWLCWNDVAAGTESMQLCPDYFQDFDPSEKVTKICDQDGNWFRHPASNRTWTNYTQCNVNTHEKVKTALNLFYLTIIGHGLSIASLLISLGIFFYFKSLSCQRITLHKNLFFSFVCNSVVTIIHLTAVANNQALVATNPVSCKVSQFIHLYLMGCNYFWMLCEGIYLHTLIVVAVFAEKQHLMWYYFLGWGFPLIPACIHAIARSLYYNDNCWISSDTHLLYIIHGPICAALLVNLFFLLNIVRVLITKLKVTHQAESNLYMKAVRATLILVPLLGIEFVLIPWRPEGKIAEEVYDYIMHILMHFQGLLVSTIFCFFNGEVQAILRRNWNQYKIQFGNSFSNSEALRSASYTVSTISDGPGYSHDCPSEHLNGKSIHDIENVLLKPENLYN
Sequence (O60894 27-148 limits assumed, chain 2 of 2): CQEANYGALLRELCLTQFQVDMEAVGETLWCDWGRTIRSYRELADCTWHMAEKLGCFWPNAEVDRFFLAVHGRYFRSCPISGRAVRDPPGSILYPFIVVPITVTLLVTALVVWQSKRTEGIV

Binder	Average IC50 (nM), cell-based cAMP assay, SK-N-MC cells, 3 nM human α-CGRP	Fold-improvement over 4E4 Ab (IC50, cAMP assay)	Run 1 IC50 (nM), cell-based cAMP assay, SK-N-MC cells, 3 nM human α-CGRP	Run 2 IC50 (nM), cell-based cAMP assay, SK-N-MC cells, 3 nM human α-CGRP
B1	0.56 nM	1 fold	0.43 nM	0.68 nM
B2	0.15 nM	3.7 fold	0.14 nM	0.15 nM

target: T1, human PAC1 receptor; experiment: cell-based or functional assay

Binder	Fold-improvement over 29G4v22 Ab	IC50
B3	1.8 fold	3.76 nM
B4	2.8 fold	2.38 nM
B5	3.4 fold	1.95 nM
B6	3.5 fold	1.92 nM
B7	3 fold	2.21 nM

target: human CGRP receptor (human, UniProt Q16602 23-461; O60894 27-148); experiment: cell-based or functional assay
Sequence (Q16602 23-461 limits assumed, chain 1 of 2): as the sequence (Q16602 23-461 limits assumed, chain 1 of 2) above
Sequence (O60894 27-148 limits assumed, chain 2 of 2): as the sequence (O60894 27-148 limits assumed, chain 2 of 2) above

Binder	Fold-improvement over 4E4 Ab	IC50
B3	1 fold	0.52 nM
B4	0.9 fold	0.55 nM
B5	1 fold	0.52 nM
B6	0.9 fold	0.57 nM
B7	0.9 fold	0.55 nM
